Assay results: US10766960 (dated 2020)
Substitutions are numbered along the chain they refer to. “And” between values parts separate entries of the source, which are not always exact repeats. Identical values can stand only once.

T1: FcgRIa (human, UniProt P12314)
T1 chain: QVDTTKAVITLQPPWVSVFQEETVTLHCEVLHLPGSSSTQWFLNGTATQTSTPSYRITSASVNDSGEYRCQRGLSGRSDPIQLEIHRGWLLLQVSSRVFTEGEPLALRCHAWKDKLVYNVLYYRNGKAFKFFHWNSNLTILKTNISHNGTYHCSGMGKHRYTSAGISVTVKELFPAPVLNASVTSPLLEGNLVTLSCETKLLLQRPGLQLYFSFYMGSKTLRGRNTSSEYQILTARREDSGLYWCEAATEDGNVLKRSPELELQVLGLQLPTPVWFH

T2: FcgRIIa H (human, UniProt P12318)
T2 chain: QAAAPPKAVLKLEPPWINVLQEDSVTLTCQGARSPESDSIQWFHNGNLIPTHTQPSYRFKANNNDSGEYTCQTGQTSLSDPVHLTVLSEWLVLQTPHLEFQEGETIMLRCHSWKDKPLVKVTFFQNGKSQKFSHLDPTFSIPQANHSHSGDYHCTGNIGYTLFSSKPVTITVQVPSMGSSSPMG

T3: FcgRIIb (human, UniProt P31994)
T3 chain: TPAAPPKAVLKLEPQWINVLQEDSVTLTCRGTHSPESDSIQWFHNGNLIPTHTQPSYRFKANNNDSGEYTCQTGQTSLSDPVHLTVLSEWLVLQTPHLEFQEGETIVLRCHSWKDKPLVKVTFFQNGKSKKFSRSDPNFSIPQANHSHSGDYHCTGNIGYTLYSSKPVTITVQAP

T4: FcgRIIa R (human, UniProt P12318)
T4 chain: T2 chain with H134R

B1: H240-FA024/H240-FB001/L73-k0 (antibody)
chain 1: QDQLVQSGAEVKKPGASVKVSCKASGFNIKDTYIQWVRQAPGQGLEWMGRIDPLRKQTKYREKFEGRVTITADTSTNTAYMELSSLRSEDTAVYYCVRSGREFDYWGQGTLVTVSSASTKGPSVFPLAPSSKSTSGGTAALGCLVKDYFPEPVTVSWNSGALTSGVHTFPAVLQSSGLYSLSSVVTVPSSSLGTKTYTCNVNHKPSNTKVDKKVEPKSCDKTHTCPPCPAPEYYWGPSVFLFPPKPKDTLMISRTPEVTCVVVDVSDEEPKVKFNWYVDGVEVHNAKTKPREEQYNATYRVVSVLTVLHQDWLNGKEYKCKVSNKALPAPIEKTISKAKGQPREPQVYTLPPSRKEKTKNQVSLTCLVKGFYPSDIAVEWESNGQPENNYKTTPPVLDSDGSFFLYSKLTVDKSRWQQGNVFSCSVMHEALHNRYTQKSLSLSP
chain 2: QDQLVQSGAEVKKPGASVKVSCKASGFNIKDTYIQWVRQAPGQGLEWMGRIDPLRKQTKYREKFEGRVTITADTSTNTAYMELSSLRSEDTAVYYCVRSGREFDYWGQGTLVTVSSASTKGPSVFPLAPSSKSTSGGTAALGCLVKDYFPEPVTVSWNSGALTSGVHTFPAVLQSSGLYSLSSVVTVPSSSLGTQTYICNVNHKPSNTKVDKKVEPKSCDKTHTCPPCPAPELLGGPSVFLFPPKPKDTLMISRTPEVTCVVVDVSHEEPEVQFNWYVDGVEVHNAKTKPREEQYNSTYRVVSVLTVLHQDWLNGKEYKCKVSNDALPMPIEETISKAKGQPREPQVYTLPPSREEMTKNQVSLTCLVKGFYPSDIAVEWESNGQPENNYKTTPPVLDSDGSFFLYSKLTVDKSRWQQGNVFSCSVMHEALHNHYTQESLSLSP
chain 3: DIQMTQSPSSLSASVGDRVTITCRASQDIHKYIAWYQQKPGQAPRLLIQYTSTLQPGVPSRFSGSGSGTDYTFTISSLQPEDIATYYCLQYEQLRTFGGGTKVEIKRTVAAPSVFIFPPSDEQLKSGTASVVCLLNNFYPREAKVQWKVDNALQSGNSQESVTEQDSKDSTYSLSSTLTLSKADYEKHKVYACEVTHQGLSSPVTKSFNRGEC
B2: H240-FA009/H240-FB033/L73-k0 (antibody)
chain 1: B1 chain 1 with T198I, K271E, K357M
chain 2: B1 chain 2 with G137E
chain 3: B1 chain 3
B3: H240-FA030/H240-FB059/L73-k0 (antibody)
chain 1: B1 chain 1 with K357M
chain 2: B1 chain 2 with G137E, K146E, K287E
chain 3: B1 chain 3
B4: H240-FA030/H240-FB082/L73-k0 (antibody)
chain 1: B1 chain 1 with K357M
chain 2: B1 chain 2 with G137E, K146E, K287E, N383E
chain 3: B1 chain 3
B5: H240-FA024/H240-FB064/L73-k0 (antibody)
chain 1: B1 chain 1
chain 2: B1 chain 2 with G136E, G137S, S191N, L192F, I198T, N202D, K213T
chain 3: B1 chain 3
B6: H240-FA030/H240-FB001/L73-k0 (antibody)
chain 1: B1 chain 1 with K357M
chain 2: B1 chain 2
chain 3: B1 chain 3
B7: H240-FA009/H240-FB001/L73-k0 (antibody)
chain 1: B1 chain 1 with T198I, K271E, K357M
chain 2: B1 chain 2
chain 3: B1 chain 3
B8: H240-FA024/H240-FB059/L73-k0 (antibody)
chain 1: B1 chain 1
chain 2: B1 chain 2 with G137E, K146E, K287E
chain 3: B1 chain 3
B9: H240-FA020/H240-FB083/L73-k0 (antibody)
chain 1: B1 chain 1 with K271E
chain 2: B1 chain 2 with G136E, G137S, K146E, S191N, L192F, I198T, N202D, K213T, K287E
chain 3: B1 chain 3
B10: H240-FA024/H240-FB082/L73-k0 (antibody)
chain 1: B1 chain 1
chain 2: B1 chain 2 with G137E, K146E, K287E, N383E
chain 3: B1 chain 3
B11: H240-FA021/H240-FB059/L73-k0 (antibody)
chain 1: B1 chain 1 with K271E, V396K
chain 2: B1 chain 2 with G137E, K146E, K287E
chain 3: B1 chain 3
B12: H240-FA021/H240-FB084/L73-k0 (antibody)
chain 1: B1 chain 1 with K271E, V396K
chain 2: B1 chain 2 with G136E, G137S, K146E, S191N, L192F, I198T, N202D, K213T, K287E, N383E
chain 3: B1 chain 3
B13: H240-FA030/H240-FB084/L73-k0 (antibody)
chain 1: B1 chain 1 with K357M
chain 2: B1 chain 2 with G136E, G137S, K146E, S191N, L192F, I198T, N202D, K213T, K287E, N383E
chain 3: B1 chain 3
B14: H240-FA021/H240-FB083/L73-k0 (antibody)
chain 1: B1 chain 1 with K271E, V396K
chain 2: B1 chain 2 with G136E, G137S, K146E, S191N, L192F, I198T, N202D, K213T, K287E
chain 3: B1 chain 3
B15: H240-FA009/H240-FB016/L73-k0 (antibody)
chain 1: B1 chain 1 with T198I, K271E, K357M
chain 2: B1 chain 2 with N202D
chain 3: B1 chain 3
B16: H240-FA024/H240-FB084/L73-k0 (antibody)
chain 1: B1 chain 1
chain 2: B1 chain 2 with G136E, G137S, K146E, S191N, L192F, I198T, N202D, K213T, K287E, N383E
chain 3: B1 chain 3

Molecular target: T1, FcgRIa
Experiment: SPR

Binder | Kd
B1 | 1.8 nM
B2 | 0.12 nM
B3 | 0.082 nM and 0.12 nM
B4 | 0.092 nM
B5 | 0.095 nM
B6 | 0.036 nM
B7 | 0.17 nM
B8 | 0.089 nM
B9 | 0.12 nM
B10 | 0.13 nM
B11 | 0.069 nM
B12 | 0.033 nM
B13 | 0.12 nM
B14 | 0.078 nM
B15 | 0.13 nM
B16 | 0.095 nM

molecular target: FcgRIIIa F (human, UniProt P08637); experiment: SPR
Sequence (P08637 17-208): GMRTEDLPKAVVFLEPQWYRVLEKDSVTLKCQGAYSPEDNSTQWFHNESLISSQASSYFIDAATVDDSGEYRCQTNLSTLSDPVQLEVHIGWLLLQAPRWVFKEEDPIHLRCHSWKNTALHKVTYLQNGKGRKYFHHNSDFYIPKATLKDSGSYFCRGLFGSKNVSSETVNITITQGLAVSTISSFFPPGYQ

Binder | Kd
B1 | 6.7 nM
B2 | 3.4 nM
B3 | 3.9 nM and 4.8 nM
B4 | 4.3 nM
B5 | 4.7 nM
B6 | 6.4 nM
B7 | 4.3 nM
B8 | 4.4 nM
B9 | 3.4 nM
B10 | 4.6 nM
B11 | 4.4 nM
B12 | 3.3 nM
B13 | 4.2 nM
B14 | 3.9 nM
B15 | 4.4 nM
B16 | 4.6 nM

Molecular target: T2, FcgRIIa H
Experiment: SPR

Binder | Kd
B1 | 110 nM
B2 | 80 nM
B3 | 85 nM
B4 | 88 nM
B5 | 110 nM
B6 | 120 nM
B7 | 69 nM
B8 | 93 nM
B9 | 65 nM
B10 | 80 nM
B11 | 92 nM
B12 | 69 nM
B13 | 88 nM
B14 | 69 nM
B15 | 70 nM
B16 | 79 nM

molecular target: FcgRIIIa V (human, UniProt P08637); experiment: SPR
Sequence (P08637 17-208 F176V): as the sequence (P08637 17-208) above, with F160V counted along it

Binder | Kd
B1 | 1.9 nM
B2 | 1 nM
B3 | 1.2 nM and 1.4 nM
B4 | 1.3 nM
B5 | 1.3 nM
B6 | 1.7 nM
B7 | 1.1 nM
B8 | 1.3 nM
B9 | 1.1 nM
B10 | 1.3 nM
B11 | 1.7 nM
B12 | 1.3 nM
B13 | 1.3 nM
B14 | 1.4 nM
B15 | 1 nM
B16 | 1.2 nM

Molecular target: T3, FcgRIIb
Experiment: SPR

Binder | Kd
B1 | 2000 nM
B2 | 1600 nM
B3 | 1500 nM
B4 | 1900 nM
B5 | 1900 nM
B6 | 3300 nM
B7 | 1300 nM
B8 | 1600 nM
B9 | 1000 nM
B10 | 1500 nM
B11 | 1300 nM
B12 | 1300 nM
B13 | 2500 nM
B14 | 1300 nM
B15 | 1400 nM
B16 | 1500 nM

Molecular target: T4, FcgRIIa R
Experiment: SPR

Binder | Kd
B1 | 370 nM
B2 | 310 nM
B3 | 260 nM and 250 nM
B4 | 300 nM
B5 | 330 nM
B6 | 440 nM
B7 | 250 nM
B8 | 290 nM
B9 | 230 nM
B10 | 240 nM
B11 | 280 nM
B12 | 230 nM
B13 | 270 nM
B14 | 240 nM
B15 | 250 nM
B16 | 250 nM
